T1: Rrm3p-Myc (S. cerevisiae, UniProt P38766 1-723)
T1 construct: Rrm3p DNA helicase, S. cerevisiae; source: expressed from a low copy plasmid in the POL30-0 and mutant pol30 yeast strains, in lysate
T1 sequence (looked up): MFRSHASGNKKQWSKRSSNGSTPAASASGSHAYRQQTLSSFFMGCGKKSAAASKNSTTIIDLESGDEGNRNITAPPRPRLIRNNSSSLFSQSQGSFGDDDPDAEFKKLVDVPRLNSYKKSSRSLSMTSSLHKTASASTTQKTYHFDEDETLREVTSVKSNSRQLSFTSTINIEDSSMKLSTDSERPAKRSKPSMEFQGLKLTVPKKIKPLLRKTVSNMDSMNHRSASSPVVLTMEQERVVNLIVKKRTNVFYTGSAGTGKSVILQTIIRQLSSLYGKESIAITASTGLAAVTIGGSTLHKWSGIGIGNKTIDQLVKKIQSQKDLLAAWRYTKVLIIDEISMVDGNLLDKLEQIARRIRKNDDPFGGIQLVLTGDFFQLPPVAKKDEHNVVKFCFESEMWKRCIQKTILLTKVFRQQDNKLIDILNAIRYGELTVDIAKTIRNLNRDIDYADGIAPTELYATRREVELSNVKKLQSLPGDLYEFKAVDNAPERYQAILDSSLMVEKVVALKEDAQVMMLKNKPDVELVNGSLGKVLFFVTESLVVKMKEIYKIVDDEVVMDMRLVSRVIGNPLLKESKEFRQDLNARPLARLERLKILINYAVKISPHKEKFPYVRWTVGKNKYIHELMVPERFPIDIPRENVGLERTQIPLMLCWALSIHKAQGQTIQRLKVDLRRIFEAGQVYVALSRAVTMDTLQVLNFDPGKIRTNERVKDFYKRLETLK


Target: T1, Rrm3p-Myc
Experiment: co-IP; Cac1p-FLAG and Rrm3p-Myc from low copy plasmids in the POL30-0 and mutant pol30 strains; α-FLAG or α-Myc precipitation from lysate in IP buffer (150 mM NaCl, 50 mM Tris pH 7.5, 2 mM EDTA), washes with 0.2% Triton X100 + 0.01% SDS, elution with FLAG or Myc peptide, blot with α-PCNA
Settings: partners not purified

fold reduction of co-precipitated Pol30p against wild-type Pol30p [fold]	Binder
5	pol30-6 mutant Pol30p of the pol30-6 strain (natural protein, S. cerevisiae, UniProt P15873 1-258, looked up, Pol30p (PCNA), S. cerevisiae, double alanine substitutions at Asp 41 and Asp 42; detected with α-PCNA; also called Pol30-6p; source: expressed in the pol30-6 mutant yeast strain, in lysate) MLEAKFEEASLFKRIIDGFKDCVQLVNFQCKEDGIIAQAVAASRVLLVSLEIGVEAFQEYRCDHPVTLGMDLTSLSKILRCGNNTDTLTLIADNTPDSIILLFEDTKKDRIAEYSLKLMDIDADFLKIEELQYDSTLSLPSSEFSKIVRDLSQLSDSINIMITKETIKFVADGDIGSGSVIIKPFVDMEHPETSIKLEMDQPVDLTFGAKYLLDIIKGSSLSDRVGIRLSSEAPALFQFDLKSGFLQFFLAPKFNDEE
< 2	pol30-8 mutant Pol30p of the pol30-8 strain (natural protein, S. cerevisiae, UniProt P15873 1-258, looked up, Pol30p (PCNA), S. cerevisiae, double alanine substitutions at Arg 61 and Asp 63; detected with α-PCNA; also called Pol30-8p; source: expressed in the pol30-8 mutant yeast strain, in lysate) MLEAKFEEASLFKRIIDGFKDCVQLVNFQCKEDGIIAQAVDDSRVLLVSLEIGVEAFQEYACAHPVTLGMDLTSLSKILRCGNNTDTLTLIADNTPDSIILLFEDTKKDRIAEYSLKLMDIDADFLKIEELQYDSTLSLPSSEFSKIVRDLSQLSDSINIMITKETIKFVADGDIGSGSVIIKPFVDMEHPETSIKLEMDQPVDLTFGAKYLLDIIKGSSLSDRVGIRLSSEAPALFQFDLKSGFLQFFLAPKFNDEE

— article PMC10585736, “Analyses of POL30 (PCNA) reveal positional effects in transient repression or bi-modal active/silent state at the sub-telomeres of S. cerevisiae” (Epigenetics & Chromatin, 2023)
